From US6635440, “Method of isolation of RNA-binding compounds” (European Molecular Biology Laboratory)
Substitutions are numbered along the chain they refer to.

B1: U1Awt (U1 snRNA loop 2) GFP 5'UTR (ssRNA)
RNA: AAUUAUCUACUUAAGCGAUUGCACUCCCGCUUAAGAACACAAAACUCGAGAACAUAUUUUUAAUAUUAUG
B2: MSC GFP 5'UTR (ssRNA)
RNA: AAUUAUCUACUUAAGGACCAUCAGGCCUUAAGAACACAAAACUCGAGAACAUAUUUUUAAUAUUAUG
B3: MSA GFP 5'UTR (ssRNA)
RNA: B2 RNA with C22A

Columns and labels:
U1A spliceosomal protein = U1A spliceosomal protein (UniProt P09012 P09012:2-282); assay: cell_activity; GFP repression in yeast, galactose vs glucose; conditions: tags: expressed from YCpU1A in S. cerevisiae RS453; hairpin
Excerpt: (§1) YCpU1A, YCpIRP-1 and YCpCP were used for the galactose inducible expression of U1A, IRP-1 and MS2 coat protein, respectively. These plasmids contain a URA3 selection marker. The sequences and nomenclature of the GFP reporter plasmids are described in FIG. 3. Binding site insertions are represented by Capital letters. Differences between wild type and mutated binding sites are indicated by arrows.
(§2) This reduction specifically requires the presence of the wild type binding site and the cognate binding protein, and is not seen with either the mutant binding sites (FIG. 4c and f) or the non-cognate binding proteins (FIGS. 4a and d).

MS2 coat protein = MS2 coat protein (Bacteriophage MS2, UniProt P03612 P03612:2-130); assay: as above; conditions: tags: expressed from YCpCP in S. cerevisiae RS453; chain copies: 2; hairpin
Excerpt: as §1, §2

Chain of MS2 coat protein (P03612 2-130, one chain of several): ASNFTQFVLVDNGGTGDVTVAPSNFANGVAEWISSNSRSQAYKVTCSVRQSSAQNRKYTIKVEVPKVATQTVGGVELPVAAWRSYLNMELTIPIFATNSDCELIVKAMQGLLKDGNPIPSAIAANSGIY
Chain of U1A spliceosomal protein (P09012 2-282, one chain of several): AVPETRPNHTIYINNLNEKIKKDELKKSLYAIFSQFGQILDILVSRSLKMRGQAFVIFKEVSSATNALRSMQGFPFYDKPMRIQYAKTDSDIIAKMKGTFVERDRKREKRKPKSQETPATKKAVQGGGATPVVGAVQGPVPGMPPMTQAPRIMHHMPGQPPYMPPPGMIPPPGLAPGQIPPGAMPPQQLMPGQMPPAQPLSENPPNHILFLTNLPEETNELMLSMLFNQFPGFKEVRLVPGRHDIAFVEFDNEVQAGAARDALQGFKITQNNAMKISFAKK

Binder | activity (U1A spliceosomal protein) [% repression] | activity (MS2 coat protein) [% repression]
B1 | ~40 | 
B2 |  | ~70
B3 |  | ~50
